Measurements: the RNAGym collection of RNA variant scans (doi:10.1021/acssynbio.7b00057)

B1: Pistol ribozyme (parent)
chain: GGGUCGUUGUUCCAUAAUCGCGUGGAUAUGGCACGCAAGUUUCUACCGGGCACCGUAAAUGUCCGACUGGAGCCGUUCGGGCGGCUAUAAACAGACCUCAGGCCCGAAGCGUGGCGGCACCUGCCGCCGGUGGUAAAAAAGAUCGGAAGAGCACACGUCU

Variants of: B1
Experiment: aptazyme ON/OFF ratio, guanine; higher = stronger switching; co-transcriptional cleavage with and without guanine

Variant | aptazyme ON/OFF ratio
U7C U8A U10G U11A C12U C13G | 1.24
U7C U8A U10G U11A C12U C13A | 1.3
U7C U8A U10G U11A C12U C13U | 1.33
U7C U8A U11A C13G | 1.08
U7C U8A U11A C13A | 1.15
U7C U8A U11A C13U | 1.12
U7C U8A U10A U11C C12U C13G | 1.04
U7C U8A U10A U11C C12U C13A | 1.08
U7C U8A U10A U11C C12U C13U | 1.04
U7C U8A G9U U11G C12G | 1.15
U7C U8A G9U U11G C12A | 1.09
U7C U8A G9U U11G C12U | 1.4
U7C U8C G9A C12U C13A | 1.27
U7C U8C G9A C12U C13U | 1.26
U7C U8C G9A C12U C13G | 1.27
U7C U8A G9U U11C C12A C13G | 1.07
U7C U8A G9U U11C C12A C13A | 1.1
U7C U8A G9U U11C C12A C13U | 1.2
U7C U8A U10A U11C C12G | 1.13
U7C U8A U10A U11C C12U | 1.01
U7C U8A U10A U11C C12A | 1.09
U7C U8A U10C U11C C12A | 1.17
U7C U8A U10C U11C C12U | 1.09
U7C U8A U10C U11C C12G | 1.25

Variant | aptazyme ON/OFF ratio
U7C U8C C12U C13U | 1.29
U7C U8C C12U C13G | 1.2
U7C U8C C12U C13A | 1.41
U7C U8A U10G U11A C12G C13G | 1.18
U7C U8A U10G U11A C12G C13A | 1.12
U7C U8A U10G U11A C12G C13U | 1.29
U7C U8A U10A C12A | 1.3
U7C U8A U10A C12U | 1.13
U7C U8A U10A C12G | 1.19
U7C U8A U10C U11G C13U | 1.16
U7C U8A U10C U11G C13A | 1.17
U7C U8A U10C U11G C13G | 1.1
U7C U8A G9U U11G C13G | 1.02
U7C U8A G9U U11G C13A | 1.17
U7C U8A G9U U11G C13U | 1.17
U7C U8A U11C C12U C13U | 1.19
U7C U8A U11C C12U C13G | 1.27
U7C U8A U11C C12U C13A | 1.31
U7C U8A U10C U11C C12G C13U | 1.09
U7C U8A U10C U11C C12G C13A | 1.2
U7C U8A U10C U11C C12G C13G | 1.12
U7C U8C G9A U10A U11A C12G | 1.33
U7C U8C G9A U10A U11A C12U | 1.41
U7C U8C G9A U10A U11A C12A | 1.5

Variant | aptazyme ON/OFF ratio
U7C U8A U11A C12A C13A | 1.12
U7C U8A U11A C12A C13U | 1.26
U7C U8A U11A C12A C13G | 1.08
U7C U8A U10C U11C | 1.05
U7C U8A U10C U11G | 1.34
U7C U8A U10C U11A | 1.16
U7C U8A U10C C12A | 1.41
U7C U8A U10C C12U | 3.73
U7C U8A U10C C12G | 1.63
U7C U8A U10C U11C C13U | 1.01
U7C U8A U10C U11C C13A | 1.04
U7C U8A U10C U11C C13G | 1.09
U7C U8A G9U U11G C12G C13G | 1.16
U7C U8A G9U U11G C12G C13A | 1.14
U7C U8A G9U U11G C12G C13U | 1.14
U7C U8A G9U U11C C12U C13A | 1.05
U7C U8A G9U U11C C12U C13U | 1.21
U7C U8A G9U U11C C12U C13G | 1
U7C U8A U10G U11A C12G | 1.33
U7C U8A U10G U11A C12A | 1.22
U7C U8A U10G U11A C12U | 1.16
U7C U8A U10A U11G C12U | 1.24
U7C U8A U10A U11G C12A | 1.06
U7C U8A U10A U11G C12G | 1.19

Variant | aptazyme ON/OFF ratio
U7C U8C C13G | 1.17
U7C U8C C13A | 1.21
U7C U8C C13U | 1.56
U7C U8A U10G U11G C13A | 1.23
U7C U8A U10G U11G C13U | 1.32
U7C U8A U10G U11G C13G | 1.12
U7C U8A U10C U11A C12U C13U | 1.16
U7C U8A U10C U11A C12U C13A | 1.16
U7C U8A U10C U11A C12U C13G | 1.17
U7C U8A U10G U11G C12G C13U | 1.25
U7C U8A U10G U11G C12G C13G | 1.17
U7C U8A U10G U11G C12G C13A | 1.08
U7C U8C G9A U10A C13A | 1.15
U7C U8C G9A U10A C13G | 1.1
U7C U8C G9A U10A C13U | 2.14
U7C U8C G9A U10A C12A C13G | 1.12
U7C U8C G9A U10A C12A C13U | 1.21
U7C U8C G9A U10A C12A C13A | 1.19
U7C U8A G9U U11C C12G C13U | 1.16
U7C U8A G9U U11C C12G C13G | 1.12
U7C U8A G9U U11C C12G C13A | 1.17
U7C U8A U11G C13U | 1.19
U7C U8A U11G C13A | 1.14
U7C U8A U11G C13G | 1.06

Variant | aptazyme ON/OFF ratio
U7C U8A U10A U11G C12U C13G | 1.29
U7C U8A U10A U11G C12U C13A | 1.18
U7C U8A U10A U11G C12U C13U | 1.2
U7C U8A U11C C12A C13U | 1.25
U7C U8A U11C C12A C13A | 1.29
U7C U8A U11C C12A C13G | 1.18
U7C U8A U10A C12U C13A | 1.22
U7C U8A U10A C12U C13G | 1.18
U7C U8A U10A C12U C13U | 1.3
U7C U8C G9A C12G | 1.41
U7C U8C G9A C12U | 1.72
U7C U8C G9A C12A | 1.51
U7C U8A G9U U11C C12G | 1.14
U7C U8A G9U U11C C12A | 1.13
U7C U8A G9U U11C C12U | 1.17
U7C U8A G9U U11G C12U C13U | 1.24
U7C U8A G9U U11G C12U C13G | 1.17
U7C U8A G9U U11G C12U C13A | 1.22
U7C U8A U11C C12G C13G | 1.26
U7C U8A U11C C12G C13A | 1.3
U7C U8A U11C C12G C13U | 1.3
U7C U8A U11C C12A | 1.35
U7C U8A U11C C12U | 1.44
U7C U8A U11C C12G | 1.36

Variant | aptazyme ON/OFF ratio
U7C U8A U10G U11G C12A | 1.2
U7C U8A U10G U11G C12G | 1.18
U7C U8A U10G U11G C12U | 1.28
U7C U8A U11A C12G C13G | 1.16
U7C U8A U11A C12G C13A | 1.09
U7C U8A U11A C12G C13U | 1.12
U7C U8C G9A U10A U11A C12U C13G | 1.13
U7C U8C G9A U10A U11A C12U C13A | 1.27
U7C U8C G9A U10A U11A C12U C13U | 1.11
U7C U8A U10A U11C C12G C13U | 1.13
U7C U8A U10A U11C C12G C13A | 1.15
U7C U8A U10A U11C C12G C13G | 1.22
U7C U8A U10G U11C C13U | 1.05
U7C U8A U10G U11C C13A | 1.08
U7C U8A U10G U11C C13G | 1.08
U7C U8A U11G C12U C13A | 1.29
U7C U8A U11G C12U C13G | 1.13
U7C U8A U11G C12U C13U | 1.37
U7C U8A G9U U11G C12A C13A | 1.12
U7C U8A G9U U11G C12A C13U | 1.2
U7C U8A G9U U11G C12A C13G | 1.16
U7C U8C G9A C13U | 1.83
U7C U8C G9A C13G | 1.11
U7C U8C G9A C13A | 1.24

Variant | aptazyme ON/OFF ratio
U7C U8C G9A U10A U11A C12G C13A | 1.21
U7C U8C G9A U10A U11A C12G C13G | 1.12
U7C U8C G9A U10A U11A C12G C13U | 1.15
U7C U8A U11G | 1.18
U7C U8A U11A | 1.13
U7C U8A U11C | 1.1
U7C U8A U10A U11G C12A C13G | 1.17
U7C U8A U10A U11G C12A C13U | 1.19
U7C U8A U10A U11G C12A C13A | 1.12
U7C U8A U10C U11G C12G C13U | 1.08
U7C U8A U10C U11G C12G C13A | 1.15
U7C U8A U10C U11G C12G C13G | 1.08
U7C U8A U10G U11C C12U C13U | 1.41
U7C U8A U10G U11C C12U C13A | 1.35
U7C U8A U10G U11C C12U C13G | 1.23
U7C U8A U10A U11A C12G C13U | 1.23
U7C U8A U10A U11A C12G C13A | 1.23
U7C U8A U10A U11A C12G C13G | 1.31
U7C U8C C12G | 1.18
U7C U8C C12U | 1.75
U7C U8C C12A | 1.37
U7C U8C | 3.51
U7C U8A U10C U11A C13U | 1.16
